# Assay: yeast display, Sf9 membrane polyspecificity reagent, FACS + sequencing; frameworks hold sequencing errors
# Outline: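 Polyreactivity labels are assigned by the sorting gate from which each nanobody was recovered. The gates were low and high (top ~1%), set on anti-HA fluorescence for expression and streptavidin fluorescence for reagent binding. Before sorting, galactose-induced (36–48 hours) yeast display cells were stained for 1 hour at 4 °C with 10% biotinylated, detergent-solubilized Sf9 membrane reagent.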
row,Sequence,polyreactivity (PSR sort gate)
1,QVQLVESGGGLVQAGGSLRLSCAASGITFVRYAMGWYRQAPGKERELVAAIRQNGGDTYYADSVKRRFTISRDNAKNTDYLQMNSLKPEDTAVYYCNARMRGAGGYTYYYWGQGTQVTVSS,high polyreactivity
2,QVQLVESGGGLVQAGGSLRLSCAASGITFVRYAMGWYRQAPGKERELVAVISRGGITNYADSVKGRFTISRDNAKNTVYLQMNSLKPEDTAVYYCAVRGRSYVRTYDYWGQGTQVTVSS,high polyreactivity
3,QVQLVESGGGLVQAGGSLRLSCAASGITFWFYAMGWYRQAPGKERELVADITSGGSTYYADSVKGLFTISRDNAKNTVYLQMNSLKPEDTAVYYCAADSWDSLAGLWDWNGPYYYWGQGTQVTVSS,low polyreactivity
4,QVQLVESGGGLVQAGGSLRLSCAASGITFWSYAMGWYRQAPGKERELVAAISRGGDSTYYADSVKGRFTISRDNAKNTVYLQMNSLKPEDTAVYYCAALRKREEYYWGQGTQVTVSS,high polyreactivity
5,QVQLVESGGGLVQAGGSLRLSCAASGITFWYYAMGWYRQAPGKERELVAAISSSGGRTTYADSVKGRFTISRDNAKNTVYLQMNSLKPEDTAVYYCATTYGDRYVTAYDYWGQGTQVTVSS,high polyreactivity
6,QVQLVESGGGLVQAGGSLRLSCAASGITFYAYAIGWYRQAPGKERELVAAITSSGGNTYYADSVKGRFTISRDNAKNTVYLQMKSLKPEDTAVYYCNIRRYWWWQMGYWGQGTQVTVSS,high polyreactivity
7,QVQLVESGGGLVQAGGSLRLSCAASGITFYDYAMGWYRQAPGKERELVAAISGGGITYYADSVKGRFTISRDNAKNTVYLQMNSLKPEDTAVYYCAADAYGYGGDSWGQGTQVTVSS,low polyreactivity
8,QVQLVESGGGLVQAGGSLRLSCAASGITFYEYAMGWYRQAPGKERELVAAISTSGGNTYYADSVKGRFTISRDNAKNTVYLQMKSLKPEDTAVYYCAAQGTASSYSGGDYWGQGTQVTVSS,low polyreactivity
9,QVQLVESGGGLVQAGGSLRLSCAASGITFYEYAMGWYRQAPGKERELVATITSGGNTNYADSVKGRFTISRDNAKNTVYLQMNSLKPEDTAVYFCATRPYGYSCNRPYDYWGQGTQVTVSS,low polyreactivity
10,QVQLVESGGGLVQAGGSLRLSCAASGITFYFNAMGWYRQAPGKERELVAAISFSGGGTYYADSVKGRFTISRDNAKNTVYLQMTSLKPEDTAVYYCNADYGRGTLRSIYDYWGQGTQVTVSS,low polyreactivity
11,QVQLVESGGGLVQAGGSLRLSCAASGITFYFYAMGWYRQAPGKERELVAAITRGGRTNYADSVKGRFTISRDNAKNTVYLQMNSLKPEDTAVYYCNKRLYSYYPGKYVAEYDYWGQGTQVTVSS,high polyreactivity
12,QVQLVESGGGLVQAGGSLRLSCAASGITFYFYTMGWYRQAPGKERELVAAISRGGGSTYYADSVKGRFTISRDNAKNTVYLQMNSLKPEDTAVYYCAADYKPHYYHDDYWGQGTQVTVSS,low polyreactivity
13,QVQLVESGGGLVQAGGSLRLSCAASGITFYGYAMGWYRHAPGKERELVATISSGGGTNYADSVKGRFTISRDNAKNTVYLQMNSLKPEDSAVYYCATDLSTVDYNYWGQGTQVTVSS,low polyreactivity
14,QVQLVESGGGLVQAGGSLRLSCAASGITFYGYAMGWYRPAPGKERELVAVITSTARTNYADSVNGRFTISRDNAKNTVYLQMNSLKPEDTAVYYCAAVHSSYSFNYWGQGTQVTVSS,high polyreactivity
15,QVQLVESGGGLVQAGGSLRLSCAASGITFYGYAMGWYRQAPGKERELVARISSGGTTKYADSVKGRFTISRDNAKNTVYLQMNSLKPEDTAGYYCAVGGSWWYYGFYYWGQGTQVSVSS,high polyreactivity
16,QVQLVESGGGLVQAGGSLRLSCAASGITFYIYAMGWYRQAPGKERELVAAITWGGDGSTRYADSVKGRFTISRDNAKNTVYLQMNSLKPEDTAVYYCAGGSTFVLFDDMDYWGQGTQVTVSS,low polyreactivity
17,QVQLVESGGGLVQAGGSLRLSCAASGITFYIYAMGWYRQAPGKERELVATISWSDGRTYYADSVKGRITISRDNAKNTVYLQMNSLKPEDTAVYYCAADWWYYQFDYEYWGQGTQVTVSS,low polyreactivity
18,QVQLVESGGGLVQAGGSLRLSCAASGITFYLNAMGWYRQAPGKERELVADITVSGGSTYYADSVKGRFTISRDTAKNTVYLQMNSLIPEDTAVYYCAADLTISYSQEYYYWGQGTQVTVSS,low polyreactivity
19,QVQLVESGGGLVQAGGSLRLSCAASGITFYLYAMGWYRQAPGKERELVAAISRIGGSTYYADSVKGRFTISRDNAKNTVYLQMNSLKPEDTAVYYCATYYGGSGYDYWGQGTQVTVSS,high polyreactivity
20,QVQLVESGGGLVQAGGSLRLSCAASGITFYLYDMGWYRQAPGIERELVASITSDGSTDYADSVKGRFTISRDNAKNTVYLQMNSLKPEDTAVYYCNARVTYSWYRFGRSGDDSWGHGTQVTVSS,low polyreactivity
21,QVQLVESGGGLVQAGGSLRLSCAASGITFYNSAMGLYRQAPGKERELVAAISSSGGSTYYADSVKGRFTISRDNAKNTVYLQMNSLKPEDTAVYYCAAVIVLSSEDTYYYWGQGTQVTVSS,high polyreactivity
22,QVQLVESGGGLVQAGGSLRLSCAASGITFYPNGMGWYRQAPGKEREFVAAITSSGGSTYYADSVKGRFRISRDNAKNTLYLQMNSLKPEDTAVYYCAAQYYPISYYGYGYWGQGTQVTVSS,low polyreactivity

row,Sequence,polyreactivity (PSR sort gate)
1,QVQLVESGGGLVQAGGSLRLSCAASGITFYQYALGWYRQAPGKERELVARISYSGGSTYADSVKGRFTISRDNAKNTVYLQMNSLKPEDTAVYYCATAYRFRYGFANRYDYWGQGTQVTVSS,low polyreactivity
2,QVQLVESGGGLVQAGGSLRLSCAASGITFYRYAMGWYRPAPGKERELVAAISSSGGSTYYADSVKGRFTISRDNAKNSVYLQMNRLKPEDTAVYYCNAVVQNPQEYDYWGQGTQVTVSS,high polyreactivity
3,QVQLVESGGGLVQAGGSLRLSCAASGITFYRYAMGWYRQAPGKERELVAAISKRGGTTYYADSVKGRFTISRDNAKNTVYLQMNSLKPEDTAVYYCNKAKTAYRGQYDYWGQGTQVTVSS,high polyreactivity
4,QVQLVESGGGLVQAGGSLRLSCAASGITFYRYAMGWYRQAPGKERELVAAITSGGGRTYYADSVKGRFTISRDNAKNTVYLQMNSLKPEDTAVYYCNAADYTAYGQGEYWGQGTQVTVSS,high polyreactivity
5,QVQLVESGGGLVQAGGSLRLSCAASGITFYRYAVGWYRQAPGKERELVAAISCRGGRTYYADSVKGRFTISRDNAKKTVYLQMISLKPEDTAVDYCAAVASRIRGWLDITAYDYWGQGTQVTVSS,high polyreactivity
6,QVQLVESGGGLVQAGGSLRLSCAASGITFYRYMGWYRQAPGKERELVASITGRGGSTYYADSVKGRFTISRDNAKNTVYLQMNSLKPEDTAVYYCAAVFPTKSSTWYDYWGQGSQVTVSS,high polyreactivity
7,QVQLVESGGGLVQAGGSLRLSCAASGITFYRYVMGWYRQAPGKERELVAAISDSTGSTYYADSVKGRFTISRDNAKNTVYLQMNSLKPEDTAVYYCAAGWFYATYWRFYYWGQGTQVTVSS,low polyreactivity
8,QVQLVESGGGLVQAGGSLRLSCAASGITFYTYAMGWYRQAPGKERELDAAITCSGGRTYYADSVKGRFTISRDNAKNSVYLQMNSLKPEDTAVYYCAALYVYRPRTPYGYWGQGTQVNVSS,high polyreactivity
9,QVQLVESGGGLVQAGGSLRLSCAASGITFYVYAMGWYRQAPGKERELVAAISRRGGSTSYADSVKGRFTISRDNAKNTVYLQMNSLKPEDTAVYYCAAGPFYGGIVRRYDYWGQGTQVTVSS,low polyreactivity
10,QVQLVESGGGLVQAGGSLRLSCAASGITFYYNAMGWYRQAPGKERELVAAIRSAGSTYYADSVKGRFTISRDNAKNTVYLQMNSLKPEDTAVYYCAAEDGNTDQVRVYWIMDYWGQGTQVTVSS,low polyreactivity
11,QVQLVESGGGLVQAGGSLRLSCAASGITFYYTMGWYRQAPGKERELVATISYDGTSTYYADSVKGRFTISRHNEKNTVYLHMNSLKPEDTAVYYSSAYGTVVTLNDYWGQGTQVTVSS,low polyreactivity
12,QVQLVESGGGLVQAGGSLRLSCAASGITFYYYAKGWYRQAPGKEREFVAAINWSGTSTYYADSVKGRFTISRDNAKNTVYLQMNSLKPEDTAVYYCNAERGRSFWWAYDYWGQGTQVTVSS,low polyreactivity
13,QVQLVESGGGLVQAGGSLRLSCAASGITFYYYAMGWYRQAPGKERELVAAINSGGITNYADSVKGRFTISRDNAKNTVYLQMNSLKPEDTAVYYCAASSGFRYRYGYWGQGTQVTVSS,high polyreactivity
14,QVQLVESGGGLVQAGGSLRLSCAASGITFYYYAMGWYRQAPGKERELVAAISFRGGSTYYADSVKGRFTISRDNAKNTVYLQMNSLIPEDTAVYYCAAETSPSWYTWVTYDYWGQGTQVTVSS,high polyreactivity
15,QVQLVESGGGLVQAGGSLRLSCAASGITFYYYAMGWYRQAPGKERELVAAISFRGGSTYYADSVKGRFTISRDNAKNTVYLQMNSLKPEDTAVYYCAKAWSYTDPPRGDYWGQGTQVTVSS,high polyreactivity
16,QVQLVESGGGLVQAGGSLRLSCAASGITFYYYAMGWYRQAPGKERELVAAITVNGGTTYYADSVKGRFTISRDNAKNTVYLQMNSLKPEDTAVYYCNADGTFEYDYWGQGTQVTVSS,low polyreactivity
17,QVQLVESGGGLVQAGGSLRLSCAASGITFYYYAMRWYRQAPGKERELVAAISRGGSTYYADSVKGRFTISCDNAKNTVYLQMNSLKPEDTAVYYCNAYTTGYLFGYWGQGTQVTVSS,high polyreactivity
18,QVQLVESGGGLVQAGGSLRLSCAASGITFYYYGMGWYRQAPGKERELVAAITTGGNTNYADSVKGRFTISRDNAKNTVYLQMNSLKPEDTAVYYCAAEYRIPYFFTYGYWGQGTQVTVSS,high polyreactivity
19,QVQLVESGGGLVQAGGSLRLSCAASGITIDYYAMGWYRQAPGKERELVAAISSVGNTNYADSVKGRFTISRDNAKNTVYLQMNSLKPEDTAVYYCAARAYGQRLYRVWSGYGYWGQGTQVTVSS,high polyreactivity
20,QVQLVESGGGLVQAGGSLRLSCAASGITIIHNAMGWYRQAPGKERELVAAITTSDGSTYYADSVKGRFTISRDNAKNTVYLQMNSLKPEDTAVYYCAARGRHSGYYSFPYYYWGQGTQVTVSS,low polyreactivity
21,QVQLVESGGGLVQAGGSLRLSCAASGITIVLYAMGWYRQAPGKERELVAAINIDGNTNYADSVKGRFTISRDNAKNTVYLQMNSLKPEDTAVYYCATYYYYPSWYLLYGEYNYWGQGTQVTVSS,low polyreactivity
